Target: B/Phuket/3073/2013 NA ectodomain (residues W80-L466) (influenza B virus B/Phuket/3073/2013)
Experiment: cryo-EM structure

Q: For “B/Phuket/3073/2013 NA ectodomain (residues W80-L466) (domain or fragment)”, which stoichiometry N is on record?
A: 4

Source: PMC7572813
